{"source": "paper PMC12708450", "target": "PD-L1 (recombinant human) (Homo sapiens) (UniProt Q9NZQ7)", "sequence (Q9NZQ7 19-238)": "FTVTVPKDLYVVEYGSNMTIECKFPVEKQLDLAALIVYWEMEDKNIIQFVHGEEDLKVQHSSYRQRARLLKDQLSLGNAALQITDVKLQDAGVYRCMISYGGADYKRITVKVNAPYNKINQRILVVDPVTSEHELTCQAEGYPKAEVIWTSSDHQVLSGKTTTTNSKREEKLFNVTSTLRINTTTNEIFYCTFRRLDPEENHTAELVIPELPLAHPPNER", "assay": "ELONA", "details": "1:1 hyperbolic fit; internal C3 spacer (iSpC3) between DNA nt 63 and RNA nt 1 (strand position 64); nt 1-63 DNA, nt 64-82 RNA; strand 2 RNA; ELONA: PD-L1 coated in PBS at 4 C overnight; blocked with PBS, 0.1% Tween 20, 1% BSA; wash PBS, 1 mM MgCl2, 0.1% Tween 20, 0.1% BSA; oligo heated 95 C 10 min …", "data": [{"sequence": "ACCGACCGTGCTGGACTCATCTCGCTTTTTTCACGGTCCACACTACTATGAGCGAGCCTGGCGGGAAUGACCUCUUUCACCA / UGGUGAAAGAGGUCAUUCC [PD-L1 aptamer-CD47 siRNA chimera]", "values": [{"measurement": "Kd", "result": 0.174, "unit": "µM"}]}]}
